Reference: patent US20050203007A1 (REGENTS OF THE UNIVERSITY OF MICHIGAN, published 2005)
One block for each binder: values may come before it.

Assays:
secreted, soluble furin [1] = biological target: T1, secreted, soluble furin (human, UniProt P09958 108-715, limits assumed); experiment: rapid inhibition assay; listed as potent inhibitor of furin
T1 construct: Secreted, soluble construct; also called human furin
Protocol: (§1) 5. Rapid protease inhibition assay. Novel eglin variants were diluted 50-fold and incubated with secreted, soluble furin (0.5 nM) for 15 min in 96-well plates. The furin substrate (Boc-Arg-Val-Arg-Arg-MCA) was added, and release of AMC was monitored continuously in a 96-well fluorescence plate reader for 20 min, as described under Example 1. […] The plasmid DNA encoding such eglin c variant inhibitors were isolated and sequenced.

secreted, soluble furin [2] = biological target: T1, secreted, soluble furin; experiment: equilibrium enzyme inhibition
Protocol: (§2) Thus, R1-eglin refers to substitution of Arg at position P1.
(§3) Affinities of eglin variants with secreted, soluble Kex2 (hereafter “Kex2”; Brenner, C. and Fuller, R. S. (1992) Proc. Natl. Acad. Sci. USA 89: 922-926) and secreted, soluble furin (hereafter, “furin”; Bravo, D. A. et al (1994) J. Biol. Chem. 269: 25830-25837; and Komiyama & Fuller (2000) Biochemistry 39: 15156-15165) were measured by incubating variants with the enzymes (˜0.5 to 2.0 nM) for 45 min to 1 h at 21° C. in one of two enzyme assay buffers. For Kex2, the buffer was 200 mM Bistris (pH 7.27) containing 1 mM CaCl₂ and 0.1% Triton X-100; and for furin, the buffer was 20 mM NaMES (pH 7.0) containing 1 mM CaCl₂ and 0.1% Triton X-100 for furin.

secreted, soluble Kex2 [3] = biological target: T2, secreted, soluble Kex2 (Saccharomyces cerevisiae, UniProt P13134 114-613, limits assumed); experiment: equilibrium enzyme inhibition
T2 construct: Secreted, soluble construct; also called kexin
T2 sequence (looked up): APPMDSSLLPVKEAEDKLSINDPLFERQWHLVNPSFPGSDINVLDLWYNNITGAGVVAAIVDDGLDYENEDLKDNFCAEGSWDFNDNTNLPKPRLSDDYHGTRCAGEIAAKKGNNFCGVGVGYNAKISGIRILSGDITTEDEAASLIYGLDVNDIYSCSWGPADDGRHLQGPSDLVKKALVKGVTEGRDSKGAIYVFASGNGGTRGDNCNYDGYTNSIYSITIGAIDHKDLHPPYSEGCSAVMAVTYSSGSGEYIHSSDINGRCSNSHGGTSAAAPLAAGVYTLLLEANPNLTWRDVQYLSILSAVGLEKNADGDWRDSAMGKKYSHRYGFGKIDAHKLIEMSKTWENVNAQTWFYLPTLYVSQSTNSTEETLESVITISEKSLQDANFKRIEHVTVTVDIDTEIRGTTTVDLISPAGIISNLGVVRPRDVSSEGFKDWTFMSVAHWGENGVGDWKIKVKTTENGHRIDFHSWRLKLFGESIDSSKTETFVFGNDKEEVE
Protocol: as §2, §3

human plasma kallikrein = human plasma kallikrein (human, UniProt P03952 20-638); experiment: enzyme inhibition; weak inhibition
human plasma kallikrein, sequence (P03952 20-638 limits assumed): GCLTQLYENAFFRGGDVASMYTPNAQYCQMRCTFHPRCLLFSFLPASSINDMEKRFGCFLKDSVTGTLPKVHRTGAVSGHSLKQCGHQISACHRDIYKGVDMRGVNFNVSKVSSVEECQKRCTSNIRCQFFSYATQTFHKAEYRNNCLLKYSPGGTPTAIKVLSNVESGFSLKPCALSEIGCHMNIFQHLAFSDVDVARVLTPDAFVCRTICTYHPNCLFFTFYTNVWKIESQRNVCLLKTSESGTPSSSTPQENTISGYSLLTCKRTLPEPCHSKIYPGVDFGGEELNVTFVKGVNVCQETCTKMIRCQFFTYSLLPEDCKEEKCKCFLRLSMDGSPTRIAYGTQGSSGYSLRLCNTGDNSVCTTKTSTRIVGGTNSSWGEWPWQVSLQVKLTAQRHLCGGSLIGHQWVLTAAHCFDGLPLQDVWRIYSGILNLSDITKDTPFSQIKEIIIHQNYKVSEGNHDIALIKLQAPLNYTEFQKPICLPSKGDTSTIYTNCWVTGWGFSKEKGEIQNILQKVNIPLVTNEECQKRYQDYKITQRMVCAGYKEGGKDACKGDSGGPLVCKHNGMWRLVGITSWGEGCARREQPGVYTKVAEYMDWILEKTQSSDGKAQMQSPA

human plasmin = human plasmin (human, UniProt P00747 97-810, limits assumed); experiment: enzyme inhibition; weak inhibition
human plasmin, sequence (P00747 97-810 limits assumed): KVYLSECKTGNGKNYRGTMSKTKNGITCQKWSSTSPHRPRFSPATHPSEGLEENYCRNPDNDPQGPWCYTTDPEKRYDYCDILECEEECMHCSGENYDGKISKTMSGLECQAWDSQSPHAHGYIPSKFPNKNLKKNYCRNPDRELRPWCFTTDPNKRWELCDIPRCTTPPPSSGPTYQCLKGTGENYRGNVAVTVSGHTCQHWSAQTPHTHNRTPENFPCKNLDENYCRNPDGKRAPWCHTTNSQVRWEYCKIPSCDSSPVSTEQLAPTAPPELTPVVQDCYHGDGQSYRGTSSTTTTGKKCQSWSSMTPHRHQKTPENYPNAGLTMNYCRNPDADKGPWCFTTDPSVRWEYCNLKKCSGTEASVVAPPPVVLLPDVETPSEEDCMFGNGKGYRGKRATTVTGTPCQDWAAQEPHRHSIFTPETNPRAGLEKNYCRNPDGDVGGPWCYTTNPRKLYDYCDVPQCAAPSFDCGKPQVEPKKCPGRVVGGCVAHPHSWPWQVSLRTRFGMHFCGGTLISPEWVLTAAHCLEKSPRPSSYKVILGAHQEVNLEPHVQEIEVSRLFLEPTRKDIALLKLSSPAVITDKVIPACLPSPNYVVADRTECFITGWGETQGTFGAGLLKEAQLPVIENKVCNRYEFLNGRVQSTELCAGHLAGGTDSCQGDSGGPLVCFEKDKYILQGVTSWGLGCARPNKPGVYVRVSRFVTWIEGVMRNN

trypsin [4] = experiment: enzyme inhibition
trypsin, sequence (P00760 24-246): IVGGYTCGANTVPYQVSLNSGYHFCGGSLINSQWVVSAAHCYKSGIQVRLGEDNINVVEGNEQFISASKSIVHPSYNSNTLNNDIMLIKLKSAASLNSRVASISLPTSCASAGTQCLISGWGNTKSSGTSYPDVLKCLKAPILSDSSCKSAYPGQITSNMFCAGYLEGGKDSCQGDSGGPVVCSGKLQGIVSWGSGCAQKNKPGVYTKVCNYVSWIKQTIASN

subtilisin Carlsberg [5] = biological target: T3, subtilisin Carlsberg (UniProt P00780 106-379); experiment: enzyme inhibition
T3 sequence (looked up): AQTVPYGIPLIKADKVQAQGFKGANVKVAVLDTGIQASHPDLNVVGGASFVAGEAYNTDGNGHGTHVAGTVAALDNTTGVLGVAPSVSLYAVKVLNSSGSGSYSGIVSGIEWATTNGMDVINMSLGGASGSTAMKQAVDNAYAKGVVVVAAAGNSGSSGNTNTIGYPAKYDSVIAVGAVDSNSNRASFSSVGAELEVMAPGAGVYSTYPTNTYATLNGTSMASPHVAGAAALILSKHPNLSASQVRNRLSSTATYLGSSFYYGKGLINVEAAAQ

secreted, soluble furin [6] = biological target: T1, secreted, soluble furin; experiment: equilibrium enzyme inhibition, fluorogenic substrate
Protocol: (§4) Affinities of eglin variants with secreted, soluble Kex2 (hereafter “Kex2”; Brenner, C. and Fuller, R. S. (1992) Proc. Natl. Acad. Sci. USA 89: 922-926) and secreted, soluble furin (hereafter, “furin”; Bravo, D. A. et al (1994) J. Biol. Chem. 269: 25830-25837; and Komiyama & Fuller (2000) Biochemistry 39: 15156-15165) were measured by incubating variants with the enzymes (˜0.5 to 2.0 nM) for 45 min to 1 h at 21° C. in one of two enzyme assay buffers. For Kex2, the buffer was 200 mM Bistris (pH 7.27) containing 1 mM CaCl₂ and 0.1% Triton X-100; and for furin, the buffer was 20 mM NaMES (pH 7.0) containing 1 mM CaCl₂ and 0.1% Triton X-100 for furin. 100 to 200 μL aliquots of reaction mixtures were transferred into triplicate wells of opaque 96 well plates (Costar), and residual enzyme activity was measured with an fmax fluorescence micro plate reader (Molecular Devices) by monitoring hydrolysis of a fluorogenic substrate Boc-Arg-Val-Arg-Arg-MCA. Data were graphically analyzed (KaleidaGraph) with an equation developed by Green and Work (1953). Site-directed mutagenesis at P2 and P6 of eglin c generated temporary inhibitors (Table 3) and exhausted possibility to improve affinity further with this approach.

secreted, soluble Kex2 [7] = biological target: T2, secreted, soluble Kex2; experiment: as above
Protocol: as §4

secreted, soluble furin [8] = biological target: T1, secreted, soluble furin; experiment: ratio of affinities, enzyme inhibition
human PC7 = biological target: T4, human PC7 (human, UniProt Q16549 142-667, limits assumed); experiment: enzyme inhibition, purified variant; Kassoc
T4 sequence (looked up): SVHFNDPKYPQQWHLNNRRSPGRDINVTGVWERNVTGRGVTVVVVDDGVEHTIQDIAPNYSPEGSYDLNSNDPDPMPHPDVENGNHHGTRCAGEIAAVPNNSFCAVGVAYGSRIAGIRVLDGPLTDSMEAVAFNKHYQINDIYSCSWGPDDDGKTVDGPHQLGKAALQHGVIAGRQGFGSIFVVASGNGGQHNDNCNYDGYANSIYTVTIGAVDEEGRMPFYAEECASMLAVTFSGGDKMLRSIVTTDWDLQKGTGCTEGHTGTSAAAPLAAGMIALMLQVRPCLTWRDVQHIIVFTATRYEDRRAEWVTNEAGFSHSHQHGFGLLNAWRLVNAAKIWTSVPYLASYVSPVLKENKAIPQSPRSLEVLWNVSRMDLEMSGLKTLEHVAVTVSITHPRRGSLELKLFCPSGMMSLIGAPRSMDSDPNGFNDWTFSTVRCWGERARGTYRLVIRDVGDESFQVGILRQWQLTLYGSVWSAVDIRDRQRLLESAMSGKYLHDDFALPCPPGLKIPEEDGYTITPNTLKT

secreted, soluble furin [9] = biological target: T1, secreted, soluble furin; experiment: enzyme inhibition, purified variant; Kassoc
secreted, soluble Kex2 [10] = biological target: T2, secreted, soluble Kex2; experiment: enzyme inhibition, purified variant; Kassoc
trypsin [11] = experiment: enzyme inhibition; temporary inhibitor of trypsin
secreted, soluble Kex2 [12] = biological target: T2, secreted, soluble Kex2; experiment: estimated from koff
Protocol: In some aspects of the present invention, biological application of the eglin c variants of the present invention as inhibitors of processing in vivo depends upon the rate of binding to target enzymes, where it is critical. Therefore, the rate of action of eglin variants with Kex2 and furin was examined by incubating 5×10⁻¹⁰ M enzyme with inhibitor at molar ratios of inhibitor to enzyme ranging from 10 to 80. […] The relationship between kobs and inhibitor concentration was linear. The values of kₒₙ were determined from the slope of such curves, and dissociation rate constants (koff) were calculated (koff=kₒₙ/Kₐ). For R4R1-eglin, koff was calculated to be 2×10⁻⁴s⁻¹ for Kex2, and 3×10⁻⁴s⁻¹ for furin. […] Similarly, the t_{1/2} of the complex of M4R1-eglin with Kex2 was estimated to be 3 h. For complex of R4K1-eglin with furin, koff was calculated to be 2×10⁻⁴s⁻¹ implying that the koff and t_{1/2} for this complex are similar to those for the complex of R4R1-eglin with furin.

secreted, soluble furin [13] = biological target: T1, secreted, soluble furin; experiment: rapid furin inhibition assay; table lists substitutions with equal or enhanced inhibition of furin relative to the template
Protocol: 3. Rapid screening of libraries. Libraries were introduced into E. coli BL21 (DE3) cells and individual, cloned transformants were grown by shaking at 37° C. in 200 μl LB containing […] kanamycin in 96-well, 0.45 μm GHP membrane filter plates (Gelman) (FIG. 2). When O.D. 600 values reached 0.4, 60 μl of culture were transferred to secondary 96-well plates (Falcon), adjusted to 10% glycerol, and stored at −80° C. These frozen stocks served as master copies of the libraries. IPTG was added to the cultures to a final concentration of 1 mM, and the cultures were allowed to express eglin c variants for one hour in the filter plate. Expressed eglin c variants were extracted from the cells with 50 mM Tris-HCl pH 8.0 containing 2 mM EDTA following freezing and thawing. These extracts were collected as filtrates by centrifugation of the filter plate above a second plate. The filtrates, representing partially purified eglin c variants, were analyzed using a rapid fluorescence-based assay for processing enzyme inhibition as described below in Section 5. […] Frozen cells were cultured in 50 to 100 ml culture volumes, and DNA maxipreps were performed; the DNA preparations were then sequenced by automated DNA sequencing. Selected variants were expressed and purified on a larger scale, and affinities for furin or Kex2 were examined quantitatively (see below).
as §1

secreted, soluble Kex2 [14] = biological target: T2, secreted, soluble Kex2; experiment: rapid inhibition assay; listed as potent inhibitor of Kex2
chymotrypsin = experiment: enzyme inhibition, standard assay conditions
[15] = biological target: T5, human neutrophil elastase (human, UniProt P08246 30-247); experiment: enzyme inhibition, standard assay conditions
T5 sequence (looked up): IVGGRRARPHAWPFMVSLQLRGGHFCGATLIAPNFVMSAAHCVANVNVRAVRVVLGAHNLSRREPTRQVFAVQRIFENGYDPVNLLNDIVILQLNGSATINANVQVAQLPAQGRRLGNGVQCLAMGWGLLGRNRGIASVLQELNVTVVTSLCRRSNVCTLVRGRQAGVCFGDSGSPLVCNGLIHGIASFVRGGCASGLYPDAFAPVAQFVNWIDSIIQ

subtilisin Carlsberg [16] = biological target: T3, subtilisin Carlsberg; experiment: enzyme inhibition, standard assay conditions

T1 sequence (P09958 108-715 limits assumed): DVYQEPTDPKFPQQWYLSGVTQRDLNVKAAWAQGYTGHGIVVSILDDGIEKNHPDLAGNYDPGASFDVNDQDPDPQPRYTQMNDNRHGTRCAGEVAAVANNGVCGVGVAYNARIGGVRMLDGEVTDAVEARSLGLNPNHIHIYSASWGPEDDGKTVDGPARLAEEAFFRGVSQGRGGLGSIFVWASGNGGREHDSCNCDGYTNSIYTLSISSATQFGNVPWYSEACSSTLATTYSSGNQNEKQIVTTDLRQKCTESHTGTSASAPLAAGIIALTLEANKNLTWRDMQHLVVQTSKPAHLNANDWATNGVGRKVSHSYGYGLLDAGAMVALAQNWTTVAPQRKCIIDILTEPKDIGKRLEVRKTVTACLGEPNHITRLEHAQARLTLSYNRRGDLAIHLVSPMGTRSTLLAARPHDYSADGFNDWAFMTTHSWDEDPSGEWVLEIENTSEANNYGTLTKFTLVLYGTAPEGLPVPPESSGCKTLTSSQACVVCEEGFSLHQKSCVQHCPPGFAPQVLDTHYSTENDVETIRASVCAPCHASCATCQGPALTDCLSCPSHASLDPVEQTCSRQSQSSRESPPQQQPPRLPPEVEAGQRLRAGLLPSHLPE

B1: Gly49-R4R1-eglin (Tyr49 to Gly) (designed binder)
chain: SMGSELKSFPEVVGKTVDQAREYFTLHYPQYDVYFLPEGSRVTRDLRGNRVRVFYNPGTNVVNHVPHVG
notes: tested as partially purified extract
binding result (secreted, soluble furin [1]): binds

B2: R1-eglin (designed binder)
chain: SMGSELKSFPEVVGKTVDQAREYFTLHYPQYDVYFLPEGSPVTRDLRYNRVRVFYNPGTNVVNHVPHVG
notes: also called Arg45-eglin c
fold enhancement of affinity relative to L1-eglin (secreted, soluble furin [2]): 2 to 3 fold
fold increase in affinity relative to L1-eglin (secreted, soluble furin [2]): 2.5 fold
fold increase in affinity relative to L1-eglin (secreted, soluble Kex2 [3]): 10000 fold
Ka (human plasma kallikrein): ~1e+06 M⁻¹
Ka (human plasmin): ~1e+06 M⁻¹
Ka (trypsin [4]): 1.8e+10 M⁻¹
Ka (subtilisin Carlsberg [5]): 1e+10 M⁻¹
Ki (secreted, soluble furin [6]): 53 µM
Ki (secreted, soluble Kex2 [7]): 0.03 µM

B3: V33D49-R4R1-eglin (designed binder)
chain: SMGSELKSFPEVVGKTVDQAREYFTLHYPQYVVYFLPEGSRVTRDLRDNRVRVFYNPGTNVVNHVPHVG
notes: N-terminal Met removed; also called Asp49Val33-R4R1-eglin-c
fold preference for furin over PC7 (secreted, soluble furin [8]): 42 fold
Ka (human PC7): 8.7e+07 M⁻¹
Ka (secreted, soluble furin [9]): 3.7e+09 M⁻¹
Ka (secreted, soluble Kex2 [10]): 2.4e+10 M⁻¹

B4: M4R1-eglin (designed binder)
chain: SMGSELKSFPEVVGKTVDQAREYFTLHYPQYDVYFLPEGSMVTRDLRYNRVRVFYNPGTNVVNHVPHVG
notes: N-terminal Met removed
Ka (trypsin [11]): 4.4e+10 M⁻¹
half-life (t1/2) of the complex (secreted, soluble Kex2 [12]): 3 h
fold increase in affinity relative to L1-eglin (secreted, soluble furin [2]): 33 fold
fold increase in affinity relative to R1-eglin (secreted, soluble furin [2]): 15 fold
fold higher affinity of Kex2 than of furin (secreted, soluble Kex2 [3]): ~10000 fold
fold increase in Ka relative to R1-eglin (secreted, soluble Kex2 [3]): 88 fold
fold increase in affinity relative to L1-eglin (secreted, soluble Kex2 [3]): 1.5e+06 fold
Ka (subtilisin Carlsberg [5]): 6.6e+10 M⁻¹
Ki (secreted, soluble furin [6]): 3.6 µM
Ki (secreted, soluble Kex2 [7]): 0.00034 µM

B7: L1-eglin (other)
chain: SMGSELKSFPEVVGKTVDQAREYFTLHYPQYDVYFLPEGSPVTLDLRYNRVRVFYNPGTNVVNHVPHVG
notes: Recombinant eglin with the natural reactive site loop; also called wild type eglin; wild type eglin (Leu45)
Ka (chymotrypsin): 1.1e+10 M⁻¹
Ka [15]: 4.5e+10 M⁻¹
Ka (subtilisin Carlsberg [16]): 6.7e+10 M⁻¹
Ki (secreted, soluble furin [6]): 120 µM
Ki (secreted, soluble Kex2 [7]): ~500 µM

Results, then the binder that gave them:

binding result (secreted, soluble furin [13]): binds
binding result (secreted, soluble Kex2 [14]): binds
B5: Tyr49Cys-R4R1-eglin (designed binder)
chain: SMGSELKSFPEVVGKTVDQAREYFTLHYPQYDVYFLPEGSRVTRDLRCNRVRVFYNPGTNVVNHVPHVG
notes: N-terminal Met removed; also called the Cys variant

binding result (secreted, soluble furin [1]): binds
B6: Pro38Leu Tyr49Cys R4R1-eglin (designed binder)
chain: SMGSELKSFPEVVGKTVDQAREYFTLHYPQYDVYFLLEGSRVTRDLRCNRVRVFYNPGTNVVNHVPHVG
notes: as for B1

binding result (secreted, soluble Kex2 [14]): binds
B8: Val49-R4R1-eglin (Tyr49 to Val) (designed binder)
chain: SMGSELKSFPEVVGKTVDQAREYFTLHYPQYDVYFLPEGSRVTRDLRVNRVRVFYNPGTNVVNHVPHVG
notes: as for B1
